Assay results taken from publication PMC10303687 (2023).
Values belong to the binder of their own block, whether it stands above or below them.

Assays:
Assay in all cases: stopped flow koff/kon 10 C
p53_Gg = target: T1, p53_Gg (Gallus gallus (Chicken), UniProt P10360)
T1 chain: EPTEVFMDLWSML

p63_Dr = target: T2, p63_Dr (zebrafish, UniProt E9QG65)
T2 chain: GQDVLNQLLEML

p53_Dr = target: T3, p53_Dr (Danio rerio (Zebrafish) (Brachydanio …, UniProt P79734))
T3 chain: DSQEFAELWEKNL

p73_Dr = target: T4, p73_Dr (zebrafish, UniProt A0A8M2BER5)
T4 chain: EGPTFEHLWSTL

Kd (p53_Gg): 90 nM
B1: MDM2_Gg (protein)
chain: SPVSASEQEALVKPKPLLLKLLKLAGAEKDTFTMKEVIFYLGQYIMSKQLYDEKEQHIVHCANDLLGDLFGVTSFSVKEHRRIYSMISRNLIAIN

Kd (p63_Dr): 130000 nM
Kd (p53_Dr): 1900 nM
Kd (p73_Dr): 120 nM
B2: MDM2_Dr (protein)
chain: SQISKVDNEKLVRPKVQLKSLLEDAGADKDVFTMKEVMFYLGKYIMSKELYDKQQQHIVHCGEDPLGAVLGVKSFSVKEPRALFALINRNLVTVK
